This note sets out measurements from patent publication US20240025992A1 (Janssen / Centocor, published 2024).

In this assay the target is T1, DL3B574.
T1 construct: also called DL3B450 scFv-Fc; not shown: wild-type IgG1 Fc domain
Nature of the assay: SPR (ProteOn), antibody captured by anti-Fc; DLL1 at 100 nM and 1000 nM.

B1: DL3W33, Recombinant Human DLL1 ECD (Ser22-Gly540), -DI-C-6xHis (ligand)
chain: SGVFELKLQEFVNKKGLLGNRNCCRGGAGPPPCACRTFFRVCLKHYQASVSPEPPCTYGSAVTPVLGVDSFSLPDGGGADSAFSNPIRFPFGFTWPGTFSLIIEALHTDSPDDLATENPERLISRLATQRHLTVGEEWSQDLHSSGRTDLKYSYRFVCDEHYYGEGCSVFCRPRDDAFGHFTCGERGEKVCNPGWKGPYCTEPICLPGCDEQHGFCDKPGECKCRVGWQGRYCDECIRYPGCLHGTCQQPWQCNCQEGWGGLFCNQDLNYCTHHKPCKNGATCTNTGQGSYTCSCRPGYTGATCELGIDECDPSPCKNGGSCTDLENSYSCTCPPGFYGKICELSAMTCADGPCFNGGRCSDSPDGGYSCRCPVGYSGFNCEKKIDYCSSSPCSNGAKCVDLGDAYLCRCQAGFSGRHCDDNVDDCASSPCANGGTCRDGVNDFSCTCPPGYTGRNCSAPVSRCEHAPCHNGATCHERGHGYVCECARGYGGPNCQFLLPELPPGPAVVDLTEKLEGQGDIHHHHHH
notes: also called huDLL1; TPP000049465
For B1, the binding result is “no binding (tested: 1000 nM)”.
